Reference: US20230227534A1, “METHOD FOR GENERATING VARIANTS OF A PROTEIN” (ECOLE POLYTECHNIQUE FEDERALE DE LAUSANNE (EPFL), priority 2019, published 2023)
Substitutions are numbered along the chain they refer to. Names may count otherwise.

B1: M257Y.I305A: opsin (rhodopsin) double mutant, M257Y on TMH6 and I305A on TMH7 (protein, UniProt P02699 1-348, looked up, variant M257Y I305A)
Rhodopsin: MNGTEGPNFYVPFSNKTGVVRSPFEAPQYYLAEPWQFSMLAAYMFLLIMLGFPINFLTLYVTVQHKKLRTPLNYILLNLAVADLFMVFGGFTTTLYTSLHGYFVFGPTGCNLEGFFATLGGEIALWSLVVLAIERYVVVCKPMSNFRFGENHAIMGVAFTWVMALACAAPPLVGWSRYIPEGMQCSCGIDYYTPHEETNNESFVIYMFVVHFIIPLIVIFFCYGQLVFTVKEAAAQQQESATTQKAEKEVTRMVIIYVIAFLICWLPYAGVAFYIFTHQGSDFGPIFMTIPAFFAKTSAVYNPVAYIMMNKQFRNCMVTTLCCGKNPLGDDEASTTVSKTETSQVAPA
B2: M257Y: opsin (rhodopsin) mutant, M257Y on TMH6 (protein, UniProt P02699 1-348, looked up, variant M257Y)
Rhodopsin: B1 Rhodopsin with A305I
B3: K231E.E232I.T251R: opsin (rhodopsin) ICL3 triple mutant (protein, UniProt P02699 1-348, looked up, variant K231E E232I T251R)
Rhodopsin: B1 Rhodopsin with K231E, E232I, T251R, Y257M, A305I

System: transducin
Assay: transducin activation by designed opsin mutants (constitutive and light-induced activity)
Format: biochemical
Details: data not shown

| Molecule | rate of transducin activation (compared to M257Y alone) | constitutive activity compared to WT opsin | constitutive activity as share of the light-induced maximal activity |
| --- | --- | --- | --- |
| B1 | higher | much larger |  |
| B2 |  | much larger |  |
| B3 |  | dramatically increased | higher than 40% |
